Results: patent US11413334B2, “Lysin polypeptides active against Gram-negative bacteria” (CONTRAFECT CORPORATION, priority 2015, dated 2022)
“Also recorded” adds a separate entry of the source.

Legend:
PAO1 cells = assay: Killing assay of GN4-derived peptides in Tris-HCl buffer; conditions: FIG. 6; compared with parent GN4 fragment
[1] = test system: P. aeruginosa strain PAO1; assay: Viability (CFU) assay of GN lysins in Tris-HCl buffer; conditions: for antibacterial activity compared with EDTA and PMB / antibacterial activity compared with HuLYS or novobiocin: lysin 25 mcg/ml, 1 hour, 37° C., 20 mM Tris-HCl pH 7.2, FIG. 4; for antibacterial activity compared with EDTA and PMB: EDTA 1 mM, PMB 25 mcg/ml; for antibacterial activity compared with HuLYS or novobiocin: HuLYZ 25 mcg/ml, novobiocin 5 mcg/ml
[2] = test system: P. aeruginosa strain PAO1; assay type: cell-based, Pseudomonas aeruginosa; conditions: E. coli clones of five Micavibrio aeruginosavorus hydrolases screened

Molecule: FGN4-2: FGN4-1 with the 11 C-terminal residues removed, 31 amino acids (NKGDYQGAADQFPRWVNAGGKRLDGLVKRRA; Pseudomonas phage PAJU2)
- effect of the sequence modification on activity of the parent fragment (PAO1 cells): did reduce activity

Molecule: FGN4-4: FGN4-1 with a single C-terminal cysteine added (NKGDYQGAADQFPRWVNAGGKRLDGLVKRRAAERALFLEPLSC; artificially-created modified fragment of GN4 (SEQ ID NO 3))
- effect of the sequence modification on activity of the parent fragment (PAO1 cells): enhanced the activity of the FGN4-1

B1: GN14: 189 amino acid lysin polypeptide, putative endolysin of Pseudomonas phage Lu11 (protein)
chain: MNNELPWVAEARKYIGLREDTSKTSHNPKLLAMLDRMGEFSNESRAWWHDDETPWCGLFVGYCLGVAGRYVVREWYRARAWEAPQLTKLDRPAYGALVTFTRSGGGHVGFIVGKDARGNLMVLGGNQSNAVSIAPFAVSRVTGYFWPSFWRNKTAVKSVPFEERYSLPLLKSNGELSTNEA
modifications: Pseudomonas phage Lu11
- antibacterial activity compared with EDTA and PMB [1]: equivalent antibacterial activity; also recorded: stronger or equivalent antibacterial activity
- antibacterial activity compared with HuLYS or novobiocin [1]: greater antibacterial activity

B2: GN43: 439 amino acid lysin polypeptide, peptidase M23 of Pseudomonas (protein, listed as Pseudomonas sp.)
chain: MKRTTLNLELESNTDRLLQEKDDLLPQSVTNSSDEGTPFAQVEGASDDNTAEQDSDKPGASVADADTKPVDPEWKTITVASGDTLSTVFTKAGLSTSAMHDMLTSSKDAKRFTHLKVGQEVKLKLDPKGELQALRVKQSELETIGLDKTDKGYSFKREKAQIDLHTAYAHGRITSSLFVAGRNAGLPYNLVTSLSNIFGYDIDFALDLREGDEFDVIYEQHKVNGKQVATGNILAARFVNRGKTYTAVRYTNKQGNTSYYRADGSSMRKAFIRTPVDFARISSRFSLGRRHPILNKIRAHKGVDYAAPIGTPIKATGDGKILEAGRKGGYGNAVVIQHGQRYRTIYGHMSRFAKGIRAGTSVKQGQIIGYVGMTGLATGPHLHYEFQINGRHVDPLSAKLPMADPLGGADRKRFMAQTQPMIARMDQEKKTLLALNKQR
- antibacterial activity compared with HuLYS or novobiocin [1]: greater antibacterial activity

B3: GN2: 147 amino acid lysin polypeptide, lysozyme class, from marine metagenome (protein)
chain: MKISLEGLSLIKKFEGCKLEAYKCSAGVWTIGYGHTAGVKEGDVCTQEEAEKLLRGDIFKFEEYVQDSVKVDLDQSQFDALVAWTFNLGPGNLRSSTMLKKLNNGEYESVPFEMRRWNKAGGKTLDGLIRRRQAESLLFESKEWHQV
modifications: hypothetical protein GOS_817346 [marine metagenome] (GenBank EDG23390.1)
- antibacterial activity compared with HuLYS or novobiocin [1]: greater antibacterial activity

B4: GN37: 126 amino acid lysin polypeptide, peptidase M15 from Micavibrio aeruginosavorus (protein, listed as Micavibrio aeruginosavorus)
chain: MTYTLSKRSLDNLKGVHPDLVAVVHRAIQLTPVDFAVIEGLRSVSRQKELVAAGASKTMNSRHLTGHAVDLAAYVNGIRWDWPLYDAIAVAVKAAAKELGVAIVWGGDWTTFKDGPHFELDRSKYR
- clearing zone on agar overlay plates [2]: yielded a clearing zone (halo)
- decrease in bacterial viability ([1]; after only 1 hour of treatment): > 3 log
- antibacterial activity compared with EDTA and PMB [1]: equivalent antibacterial activity; also recorded: stronger or equivalent antibacterial activity
- antibacterial activity compared with HuLYS or novobiocin [1]: greater antibacterial activity

B5: GN4: 144 amino acid lysin polypeptide, putative endolysin of Pseudomonas phage PAJU2 (protein)
chain: MRTSQRGIDLIKSFEGLRLSAYQDSVGVWTIGYGTTRGVTRYMTITVEQAERMLSNDIQRFEPELDRLAKVPLNQNQWDALMSFVYNLGAANLASSTLLKLLNKGDYQGAADQFPRWVNAGGKRLDGLVKRRAAERALFLEPLS
modifications: Pseudomonas phage PAJU2
- antibacterial activity compared with EDTA and PMB [1]: equivalent antibacterial activity; also recorded: stronger or equivalent antibacterial activity
- antibacterial activity compared with HuLYS or novobiocin [1]: greater antibacterial activity
